{"source": "paper PMC1810434", "about": "“Breakage-Reunion Domain of Streptococcus pneumoniae Topoisomerase IV: Crystal Structure of a Gram-Positive Quinolone Target” (PLoS ONE, 2007)", "proteins": {"B1": {"name": "ParC55, 55.5 kDa N-terminal breakage-reunion domain of Streptococcus pneumoniae topoisomerase IV subunit A (ParC) (domain or fragment)", "chain": "MSNIQNMSLEDIMGERFGRYSKYIIQDRALPDIRDGLKPVQRRILYSMNKDSNTFDKSYRKSAKSVGNIMGNFHPHGDSSIYDAMVRMSQNWKNREILVEMHGNNGSMDGDPPAAMRYTEARLSEIAGYLLQDIEKKTVPFAWNFDDTEKEPTVLPAAFPNLLVNGSTGISAGYATDIPPHNLAEVIDAAVYMIDHPTAKIDKLMEFLPGPDFPTGAIIQGRDEIKKAYETGKGRVVVRSKTEIEKLKGGKEQIVIIEIPYEINKANLVKKIDDVRVNNKVAGIAEVRDESDRDGLRIAIELKKDANTELVLNYLFKYTDLQINYNFNMVAIDNFTPRQVGIVPILSSYIAHRREVILARSRFDKEKAEKRLHIVEGLIRVISILDEVIALIRASENKADAKENLKVSYDFTEEQAEAIVTLQLYRLTNTDVVVLQEEEAELREKIAMLAAIIGDERTMYNLMKKELREVKKKFATPRLSSLEDTAKALE", "notes": "ParC (topoisomerase IV subunit A), S. pneumoniae strain 7785, residues 1-490, with the substitution I489L needed for plasmid construction; also called wild-type ParC55; N-terminal ParC domain; source: E. coli, pET29a expression plasmid, purified by Ni2+-NTA chromatography; not shown: His6, C-terminal, kept"}, "B2": {"name": "ParC55 Cys426 (ParC55 with Arg426 changed to Cys) (domain or fragment)", "chain": "B1 chain with R426C", "notes": "PDB 2NOV holds the parent (wild-type ParC55); No entry of its own is named for the Cys426 data set; also called ParC Cys426; Cys426 mutant; source: E. coli, purified by Ni2+-NTA chromatography as for wild-type ParC55"}}, "biological_target": "the molecule itself", "assay": "crystal structure; hanging drop vapor diffusion at ambient temperature; space group I222; solved by molecular replacement; asymmetric unit of two biological dimers; wild-type data to 2.7 Å, Cys426 data to 3.25 Å", "note": "Substitutions are numbered along the chain they refer to. Numbers in names are those of the source.", "data": [{"protein": "B1", "values": [{"measurement": "binding result", "result": "binds"}]}, {"protein": "B2", "values": [{"measurement": "binding result", "result": "binds"}]}]}
